Measurements published in the DeepSol protein solubility set.

Test: soluble on expression in E. coli; label from the status in PepcDB or PDB records
With “MTNNNQIGENKEQTIFDHKGNVIKTEDREIQIISKFEEPLIVVLGNVLSDEECDELIELSKSKLARSKVGSSRDVNDIRTSSGAFLDDNELTAKIEKRISSIMNVPASHGEGLHILNYEVDQQYKAHYDYFAEHSRSAANNRISTLVMYLNDVEEGGETFFPKLNLSVHPRKGMAVYFEYFYQDQSLNELTLHGGAPVTKGEKWIATQWVRRGTYK” the “soluble on expression in E. coli” value was “soluble”. With “MTNPMQATRKIISITDQNVVHREDQVAREYPLTIYVNDREFATMVCTQADLEEMVIGFLGSEGLIRFYKQDVASLSIDESRGFAYVSLTKELPTEWQFYSKRMIGSCCGKSRQSFYFHNDAKTAKTSMSRTTMTPEQCFRLMEALQEQSVIFQQTGGVHNAALATPEQMLISRTDIGRHNALDKLYGYCLMNGVPVRDKVLLFSGRISSEVLLKAAKIGVGIMLSKSAPTELALTMAEELNITTAGFIRDGRMNIYTVPERILTPKKEVQLEHHHHHH” the “soluble on expression in E. coli” value was “soluble”. For “MTPDFQIVTQRLQLRLITADEAEELVQCIRQSQTLHQWVDWCHALFSQQEAEQFIQATRLNWVKAEAYGFGVFERQTQTLVGMVAINEFYHTFNMASLGYWIGDRYQRQGYGKEALTALILFCFERLELTRLEIVCDPENVPSQALALRCGANREQLAPNRFLYAGEPKAGIVFSLIP”, the “soluble on expression in E. coli” value was “soluble”. With “MTPFKELQKFIHWKERFLRDYEKIEKGELEKIREEVKEMLGEEPDERLLKALRSMYVGGMEHRVEDEEIRYWTNWGGVKTYETFNRFPLLSDIELAFVFWALGKLFVPLLMHETGVKSEPFKKLSREEQEEAVLDELDTLWETQLTLILQALQFLDLKSISSEKPSSEG” the “soluble on expression in E. coli” value was “not soluble”. In the case of “MTPNKEDYLKCIYEIGIDLHKITNKEIAARMQVSPPAVTEMIKRMKSENLILKDKECGYLLTDLGLKLVSELYRKHRLIEVFLVHHLDYTSDQIHEEAEVLEHTVSDLFVERLDKLLGFPKTCPHGGTIPAKGELLVEINNLPLADIKEAGAYRLTRVHDSFDILHYLDKHSLHIGDQLQVKQFDGFSNTFTILSNDEDLQVNMDIAKQLYVEKIN”, the “soluble on expression in E. coli” value is reported as “not soluble”. For “MTQDDFFDLTPVEDFDSYDPLADTEDEEFDLEAPAESGMFLVEPGEFPTVDELASQAEALQQAPAAQRIATLFDHMERSRKILLGILEMCDGQVQPNELVISRIEKLKANNKSVYTPDNMCMMLVRAGALRRVTQDGTDYEDIEDTLEPKRVVIDGVEYLEPVQAPQICWLTTPEGSQVVAADQPRARLRELLENEPQYRHVFRTVLEMCAPDGGTTQKALSAALDNDPALMHPRMYAMRFAERLAQNDALEWRDNAWRITDIGSEGLDIIAELDAAEQADD”, the “soluble on expression in E. coli” value was “not soluble”. For “MTQDELYMKEAIKEAKKAEEKGEVPIGAVLVINGEIIARAHNLRETEQRSIAHAEMLVIDEACKALGTWRLEGATLYVTLEPCPMCAGAVVLSRVEKVVFGAFDPKGGCSGTLMNLLQEERFNHQAEVVSGVLEEECGGMLSAFFRELRKKKKAARKNLSEMGHHHHHHSH”, the “soluble on expression in E. coli” value was “not soluble”. In the case of “MTQEEMKHIDPSGNHTISHLCEAWKLSMRYQVKPSTFACYATIIQKHIRPSIGTVEMEEMNNEILSEFILDRQSRGLSANTMRLILFLLKSIIRAGERRGICPAEPLDFFLPKDRGYEMKLLSQDNRRKLLSWLAGCRTNFELGLLLSLSTGIRVGELCGMKWEDVDLEEGVLHIRRTVSRIRNTDQKNTAAKTVLYIGSPKTGTSQREIPLPDFMIPRLKEKKREAGCYLLTGRTGCMEPRGVQRRFKN”, the “soluble on expression in E. coli” value is reported as “not soluble”. In the case of “MTQFETERLILRPMTAADHDALADMIFDPQVVAYLRYRRVQSPAAFEQLFTTHFLADTTTVFGIERRRDHQLIGFYEFHGSGATGELTYALSPAAWGHGYVAEAGNCLMHYGFETLNYETIEAHYASANPNSGRVMAKMGMQAAGELHTFTSDKGEVIHVMRYLLTKATWRQLSA”, the “soluble on expression in E. coli” value is reported as “not soluble”. For “MTQKEISIIHPRPSSIVAALYTLRDLNVDVAILHGPPGCSFKHARLLEEDGIHVVTTGLDENGFVFGGHDRLVEVINKSIELFNPKILGVVGTCASMIIGEEMHDAVLEANPDIPVIEVEVHAGYHNNTRGVLFALESALDAGIIDRKEFERQEYLEHHHHHH”, the “soluble on expression in E. coli” value was “soluble”. In the case of “MTQRLQLTWYNKDKALIPTETGKYGYTWVDPSDPRYCETHTLIFDDYVQGAQTPKSDEFECSERADLQPQDDNLLILGESGDVLEALTRVPELAEKYVGKVKLVYIDPPFNTAQTFASYEDNLEHSIWLTMMRDRLIHMKKLLTNDGSIWVHLDDVEVHRMRVLMDEVFGADRFIATVAWEKDKGRRNDTDISGAHDLILIYAPSGRQWKNVRNLLPRLASQDARYQNPDNDPRGPWLQGDNGTAKSGTEKNRFPVTLPSGRVVTPKGRYWRFSPEGLAEARADGRVWFGKDGDSLPVIKRYLTDVQTGLVPRTWWNADEAGHNQEAKRDHLNKMFPEVENP”, the “soluble on expression in E. coli” value is reported as “not soluble”. For “MTRFAEKVAIITGSSNGIGRATAVLFAREGAKVTITGRHAERLEETRQQILAAGVSEQNVNSVVADVTTDAGQDEILSTTLGKFGKLDILVNNAGAAIPDSQSKTGTAQSIESYDATLNLNLRSVIALTKKAVPHLSSTKGEIVNISSIASGLHATPDFPYYSIAKAAIDQYTRNTAIDLIQHGIRVNSISPGLVATGFGSAMGMPEETSKKFYSTMATMKECVPAGVMGQPQDIAEVIAFLADRKTSSYIIGHQLVVDGGSSLIMGLHCQDFAKLLH”, the “soluble on expression in E. coli” value was “soluble”. With “MTRIAIALAQDFADWEPALLAAAARSYLGVEIVHATPDGMPVTSMGGLKVTPDTSYDALDPVDIDALVIPGGLSWEKGTAADLGGLVKRFRDRDRLVAGICAAASALGGTGVLNDVAHTGNALASHKAYPAYRGEAHYRDQPRAVSDGGVVTAAGSAPVSFAVEILKSLGLFGPEAEAELQIFAAEHR” the “soluble on expression in E. coli” value was “soluble”. With “MTRIVVLGAGFAGLWAAIGAARKRDEIGAAGRDIEIRVVDRNPYHNIRVRNYEVDLSEVALPLGQLLDPIGVTHGLGEVEAIDPARREISLVTSDGEETLGYDRLVLAVGSEVTRPDIPGLADHAFDVDTYIAALRLEDHLVSLGRSVPSPGRSTVVVVGAGFTGIEVAAEMPDRLARAGITGSRCIILVDPNPTVGATIGAHARPVIETALSALDIETRLGARVASVEAAGVQLSSGEFIPAQTVIWCAGLRASRLAASLPGARDRLGRLLVDPFMRVADLPCVFAAGDVASSVVDGLHPTVMSCQFARPMGRFAGHNVVADLLGLPMLPLRIDWYVTVLDLGSWGALYTEGWDREVRTTGAAAKATKQTINRKRIYPPLNGSKDELFAAAAPTVQTPPPTYGARLEHHHHHH” the “soluble on expression in E. coli” value was “soluble”. With “MTRPVTLSEPHFSQHTLNKYASLMAQGNGYLGLRASHEEDYTRQTRGMYLAGLYHRAGKGEINELVNLPDILGMEIAINGEVFSLSREAWQRELDFASGELRRSVVWRTSNGAGYTIASRRFVSADQLPLIALEITIMPLDADASVLISTGIDATQTNHGRQHLDETQVRVFGQHLMQGIYTTQDGRSDVAISCCCQVSGDVQQCYTAKERRLLQHTSTQLHAGETVTLQKLVWIDWRDDRQAALDEWGSVSLRQLEMCAQQSYDQHLAASTENWRQWWQKRRITVNGGDAHDQQALDYALYHLRIMTPAHGERSSIAAKGLTGEGYKGHVFWDTEVFLLPFHLFSDPTVARSLLRYRWHNLPGAQEKARRNGWQGALFPWESARSGEEETPEFAAINIRTGLRQKVASAQAEHHLVADIAWAVIQYWQTTGDESFIAHEGMALLLETAKFWISRAVRVNDRLEIHDVIGPDEYTEHVNNNAFTSYMVYYNVQQALSIARQFGCSDDAFIHRAEMFLKELRLPEIQPDGVLPQDDSFMTKPAINLAKYKAAAGKQTILLDYSRAEVNEMQILKQADVVMLNYMLPEQFSSASCLANLQFYEPRTIHDSSLSKAIHGIVAARCGLLTQSYQFWREGTEIDLGADPHSCDDGIHAAATGAIWLGAIQGFAGVSVRDGELHLNPALLEQWQQLSFPLFWQGCELQVTLDAQRIAIRTSAPVSLRLDGQLISVAEESVFCLGDFILPFNGTATTHQEDE” the “soluble on expression in E. coli” value was “not soluble”. With “MTRQSLQQAAESRRSIYSLNKNLPVGKDEVVQIVEHAVLHTPSSFNSQSARVVVLFGEEHDKVWQFVEDALRAVVPADSFEPTAQKLNLFKAGAATILFYEDQNVVKGLQEQFPAYAANFPVWADQANAMVQYAVWTTLAAVGVGANLQHYNPLPDAAIAKAWNIPENWLLRAQMVIGGIEGAAGEKTFEPVAERLKVFGA” the “soluble on expression in E. coli” value was “not soluble”. For “MTRTNKWTEREGKADPKYFSHTGNYGESPNHIKKQGSGKGNWGKPGDEIDDLIDNGEIPPVFKKDRRGSNLQSHEQKFENVQKE”, the “soluble on expression in E. coli” value was “not soluble”. With “MTRYLRLSGLEPFVLTPDIPFVNVGERTNVTGSARFRKLITNRDYAAALEVARDQVQNGAQILDVNMDEGLIDSKAAMVEFLNLIASEPDIARVPLMIDSSKWEVIEAGLKCVQGKPVVNSISLKEGEESFRRQAGLCLAYGAAVVVMAFDEEGQADSFARKTTICARAYRILVEEVGFPPEDIIFDPNVFAVATGIEEHDNYGVDFIEAARWIRANLPHAHVSGGVSNLSFSFRGNEPVREAMHAVFLYHAIRAGMDMGIVNAGQLAVYDQIDPDLREACEDVVLNRKPKQGGTATERLLALAER” the “soluble on expression in E. coli” value was “not soluble”. With “MTSAYFGVAGGSNTGAQSAYFGVGGGPAGGGGGASKVGGGAAPPPGTSVYMGAGGGGGGGGAQSAYFAVGGAPVGGAPAAVSIGAPPPAGGGGASTMTALGGAPSGASTMTAVGGAPRGASTMTAVGGVPSGASTMTAVGGAPTGASTMTAVGGAPTGASPMTAFGGAPTGASTMTAVGGAPTGASTMTAVGGAPTGASTMTAVGGAPTGASTMTAVGGAPTGASTMTAVGGVPTGASTMTAIGGAPSGASTMTAVGGAPRGASTMTAVGGAPTGASTMTAVGAAPGGASTMTAVGGAPRGASTMTAVGAPGGGASALGAAPPAGSMSGGGGGATSGYFGVGQGVMGGGGAVGQSAYFGVGGGAAGGAKTGGGGGGGIPGQSMYMGAGGGGGAGGGATSAYFAPK” the “soluble on expression in E. coli” value was “not soluble”. In the case of “MTSESSGNTGGAMDEPTEKKPKEFSDLPDHVLQRIMEKVEPSDRLSVRKVNRNLRQLIDEMDPGFRSISVNISTRKGVLVSYDNGSFIHYQQVYDDCEMFGRKEKKRFFNENAVKMAINDVIRVMSHPMSNVKLFRTGIPTKPEMERSRSTGKQWKRAKILCANRGFMEVSMKHLCHFSRVVVNQARTSMQTAIEIRDILLKSTSIEYVDFCSRDGVTIDAVRVFIPETANVNQTTDYDNFTFSSSMCSLNFKKKR”, the “soluble on expression in E. coli” value is reported as “not soluble”. With “MTSFTGITAVANATNEMAMFKQAMKEVAAHPEWMSSRQIERQRWNPYSMEGGSTCAISGENFAIVASDTRMTQNDINILTRDAEKIQILNDNIILTTSGFYGDVLQLKKVLQSRLHKYRFDYRSDMSVDLCAELLSRNLYYRRFFPYYTGAILAGIDEHGKGAVFSYDPIGCIERLGYSASGAAEPMIIPFLDCQIGHVTLSEGYERPELTLDRAISLMKDSFRGAAEREISTGDKIHLVIAEAGKPVVVKFLPLRED” the “soluble on expression in E. coli” value was “not soluble”.
